Experimental data reported in PMC4145081 (2014).

What was measured:
[1] = target: human SCARB2 on 293A-hSCARB2 cells pretreated with PNGase F (human) (UniProt Q14108)
[2] = target: human SCARB2 on 293A-hSCARB2 cells pretreated with PNGase F (human) (UniProt Q14108); test: flow cytometry on cells; binding of EV71 to 293A-hSCARB2 cells pretreated with or without PNGase F; details in the Extended Experimental Procedures
[3] = target: EV71 mature virions (human enterovirus 71 (EV71))
[4] = target: EV71 mature virions (human enterovirus 71 (EV71)); remark: listed apart in the source
EV71 mature virions = target: T1, EV71 mature virions (human enterovirus 71 (EV71)); test: ITC
T1 chain 1: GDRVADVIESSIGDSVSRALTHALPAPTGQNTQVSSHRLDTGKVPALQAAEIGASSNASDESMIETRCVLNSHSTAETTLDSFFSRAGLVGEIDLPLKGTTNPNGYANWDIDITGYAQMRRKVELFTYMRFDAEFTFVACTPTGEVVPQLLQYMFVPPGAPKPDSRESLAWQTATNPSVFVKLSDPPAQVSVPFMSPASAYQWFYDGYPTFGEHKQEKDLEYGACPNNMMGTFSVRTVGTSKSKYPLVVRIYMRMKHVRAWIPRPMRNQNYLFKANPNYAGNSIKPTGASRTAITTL
T1 chain 2: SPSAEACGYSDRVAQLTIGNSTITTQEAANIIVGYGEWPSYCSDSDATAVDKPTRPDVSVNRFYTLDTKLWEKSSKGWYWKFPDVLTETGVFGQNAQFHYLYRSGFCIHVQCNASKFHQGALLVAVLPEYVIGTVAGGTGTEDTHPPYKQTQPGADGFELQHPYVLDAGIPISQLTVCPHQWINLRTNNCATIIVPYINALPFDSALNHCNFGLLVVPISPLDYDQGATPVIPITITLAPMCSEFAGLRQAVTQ
T1 chain 3: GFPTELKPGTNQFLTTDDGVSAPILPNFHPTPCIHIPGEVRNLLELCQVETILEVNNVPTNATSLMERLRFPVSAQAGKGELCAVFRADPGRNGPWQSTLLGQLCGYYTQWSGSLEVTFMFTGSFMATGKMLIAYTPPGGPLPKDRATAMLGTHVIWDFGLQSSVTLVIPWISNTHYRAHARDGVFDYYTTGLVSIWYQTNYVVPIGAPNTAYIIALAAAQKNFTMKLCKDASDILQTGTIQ
T1 chain 4: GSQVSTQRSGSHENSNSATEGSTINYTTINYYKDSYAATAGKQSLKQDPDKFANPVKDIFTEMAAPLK

human SCARB2 on 293A-hSCARB2 cells pretreated with PNGase F (human), sequence (Q14108 whole entry): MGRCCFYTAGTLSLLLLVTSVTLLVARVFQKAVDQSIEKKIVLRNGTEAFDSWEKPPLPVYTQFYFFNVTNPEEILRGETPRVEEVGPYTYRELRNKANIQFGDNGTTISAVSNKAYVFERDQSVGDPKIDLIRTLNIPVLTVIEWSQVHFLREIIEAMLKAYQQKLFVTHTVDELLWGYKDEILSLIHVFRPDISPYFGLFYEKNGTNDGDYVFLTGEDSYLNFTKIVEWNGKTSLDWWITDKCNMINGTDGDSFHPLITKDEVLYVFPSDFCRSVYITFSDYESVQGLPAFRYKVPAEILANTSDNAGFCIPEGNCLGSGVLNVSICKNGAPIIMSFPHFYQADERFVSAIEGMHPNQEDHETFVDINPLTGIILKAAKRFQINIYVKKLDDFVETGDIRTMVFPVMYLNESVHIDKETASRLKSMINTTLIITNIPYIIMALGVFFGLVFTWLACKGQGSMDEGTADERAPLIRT

EV71 mature virions (complex)
decrease in infection efficiency of EV71-GFP on 293A-hSCARB2 cells pretreated with PNGase F, against untreated cells (GFP-positive cells 16 h post infection) [1]: 40%
reduction of binding against untreated cells [2]: 30%

recombinant SCARB2-His-tag protein (ectodomain of scavenger receptor class B 2)
[3H]-labeled sphingosine removed from EV71 mature virions by excess recombinant SCARB2 (60:1) at pH 5.0, 37°C, 1-4 h [3]: 90%
conversion of mature virions (~160 S) into ~125 S particles (A particles) by sedimentation velocity AUC after 1 h at 37°C with SCARB2 at pH 7.4 [4]: 5%

WSQVHFLREIIEAMLKAYQQK [synthesized peptide of SCARB2 (aa 146-166)]
Kd (EV71 mature virions): 4.2 µM
